B1: Pistol ribozyme (parent)
chain: GGGUCGUUGUUCCAUAAUCGCGUGGAUAUGGCACGCAAGUUUCUACCGGGCACCGUAAAUGUCCGACUGGAGCCGUUCGGGCGGCUAUAAACAGACCUCAGGCCCGAAGCGUGGCGGCACCUGCCGCCGGUGGUAAAAAAGAUCGGAAGAGCACACGUCU

Variants of: B1
Assay: aptazyme ON/OFF ratio, guanine; higher = stronger switching; co-transcriptional cleavage with and without guanine

Variant | aptazyme ON/OFF ratio
U7C U8G G9C U11G C12A C13A | 1.14
U7C U8G G9C U11G C12A C13G | 1.18
U7C U8G G9C U11G C12A C13U | 1.14
U7C U8G G9C U10G U11G C12U C13G | 1.09
U7C U8G G9C U10G U11G C12U C13A | 1.06
U7C U8G G9C U10G U11G C12U C13U | 1.11
U7C U8G G9C U11C C13U | 1.38
U7C U8G G9C U11C C13G | 1.05
U7C U8G G9C U11C C13A | 1.47
U7C U8G G9C U11G C12G C13G | 1.1
U7C U8G G9C U11G C12G C13A | 1.13
U7C U8G G9C U11G C12G C13U | 1.09
U7C U8G G9C U11C C12U C13G | 1.07
U7C U8G G9C U11C C12U C13A | 1.15
U7C U8G G9C U11C C12U C13U | 1.07
U7C U8G G9U U10C C13U | 2.24
U7C U8G G9U U10C C13A | 1.15
U7C U8G G9U U10C C13G | 1.13
U7C U8G G9U U10C C12U C13U | 1.38
U7C U8G G9U U10C C12U C13A | 1.38
U7C U8G G9U U10C C12U C13G | 1.32
U7C U8G G9U U10A U11G | 1.22
U7C U8G G9U U10A U11A | 1.34
U7C U8G G9U U10A U11C | 1.04

Variant | aptazyme ON/OFF ratio
U7C U8G G9U C12U | 1.97
U7C U8G G9U C12G | 1.78
U7C U8G G9U C12A | 1.64
U7C U8G G9U U10A U11G C12U | 1.19
U7C U8G G9U U10A U11G C12A | 1.11
U7C U8G G9U U10A U11G C12G | 1.23
U7C U8G G9C U11A C13G | 1.06
U7C U8G G9C U11A C13A | 1.17
U7C U8G G9C U11A C13U | 1.26
U7C U8G G9C U11G C12U C13A | 1.2
U7C U8G G9C U11G C12U C13G | 1.21
U7C U8G G9C U11G C12U C13U | 1.37
U7C U8G G9U U10A U11G C13G | 1.04
U7C U8G G9U U10A U11G C13U | 1.28
U7C U8G G9U U10A U11G C13A | 1.13
U7C U8G G9U U10A U11C C12U | 1.04
U7C U8G G9U U10A U11C C12G | 1.2
U7C U8G G9U U10A U11C C12A | 1.14
U7C U8G G9U U10A | 1.12
U7C U8G G9U U10C | 2.72
U7C U8G G9U U10A U11A C13U | 1.22
U7C U8G G9U U10A U11A C13G | 1.09
U7C U8G G9U U10A U11A C13A | 1.19
U7C U8G G9C U10G U11G C12U | 1.29

Variant | aptazyme ON/OFF ratio
U7C U8G G9C U11A C12U | 1.28
U7C U8G G9C U11A C12G | 1.16
U7C U8G G9C U11A C12A | 1.22
U7C U8G G9C U11A C12A C13U | 1.22
U7C U8G G9C U11A C12A C13A | 1.15
U7C U8G G9C U11A C12A C13G | 1.11
U7C U8G G9U U10A U11A C12U C13A | 1.22
U7C U8G G9U U10A U11A C12U C13U | 1.25
U7C U8G G9U U10A U11A C12U C13G | 1.08
U7C U8G G9C U10G U11G C13G | 1.1
U7C U8G G9C U10G U11G C13A | 1.13
U7C U8G G9C U10G U11G C13U | 1.11
U7C U8G G9U U10C C12G C13U | 1.25
U7C U8G G9U U10C C12G C13A | 1.28
U7C U8G G9U U10C C12G C13G | 1.34
U7C U8G G9C U11C C12A C13U | 2.13
U7C U8G G9C U11C C12A C13A | 1.12
U7C U8G G9C U11C C12A C13G | 1.09
U7C U8G G9U U10C U11A C12A | 1.43
U7C U8G G9U U10C U11A C12U | 1.41
U7C U8G G9U U10C U11A C12G | 1.26
U7C U8G G9U U10A C12A C13G | 1.15
U7C U8G G9U U10A C12A C13A | 1.15
U7C U8G G9U U10A C12A C13U | 1.22

Variant | aptazyme ON/OFF ratio
U7C U8G G9U U10A U11C C12U C13G | 1.11
U7C U8G G9U U10A U11C C12U C13U | 1.06
U7C U8G G9U U10A U11C C12U C13A | 1.09
U7C U8G G9C U11C C12G | 1.67
U7C U8G G9C U11C C12A | 2.71
U7C U8G G9C U11C C12U | 1.33
U7C U8G G9U | 3.71
U7C U8G G9U U10A C12G | 1.18
U7C U8G G9U U10A C12A | 1.33
U7C U8G G9U U10A C12U | 1.15
U7C U8G G9U C13G | 1.06
U7C U8G G9U C13A | 1.31
U7C U8G G9U C13U | 1.55
U7C U8G G9U U10A U11C C12A C13G | 1.16
U7C U8G G9U U10A U11C C12A C13A | 1.16
U7C U8G G9U U10A U11C C12A C13U | 1.13
U7C U8G G9U U10A U11C C13U | 1.02
U7C U8G G9U U10A U11C C13A | 1.05
U7C U8G G9U U10A U11C C13G | 1.05
U7C U8G G9U U10C U11A C13G | 1.24
U7C U8G G9U U10C U11A C13A | 1.24
U7C U8G G9U U10C U11A C12U C13U | 1.34
U7C U8G G9U U10C U11A C12U C13G | 1.27
U7C U8G G9U U10C U11A C12U C13A | 1.24

Variant | aptazyme ON/OFF ratio
U7C U8G G9U U10A U11A C12G | 1.11
U7C U8G G9U U10A U11A C12U | 1.33
U7C U8G G9U U10A U11A C12A | 1.25
U7C U8G G9U U10C U11A | 1.5
U7C U8G G9C U11C C12G C13G | 1.08
U7C U8G G9C U11C C12G C13U | 1.27
U7C U8G G9C U11C C12G C13A | 1.4
U7C U8G G9C U10G U11G C12G C13U | 1.15
U7C U8G G9U U10A U11A C12A C13A | 1.16
U7C U8G G9U U10A U11A C12A C13G | 1.14
U7C U8G G9U U10A U11A C12A C13U | 1.24
U7C U8G G9U U10A C13A | 1.14
U7C U8G G9U U10A C13U | 1.1
U7C U8G G9U U10A C13G | 1.08
U7C U8G G9U U10A C12U C13A | 1.2
U7C U8G G9U U10A C12U C13U | 1.35
U7C U8G G9U U10A C12U C13G | 1.2
U7C U8G G9U U10A U11G C12U C13U | 1.14
U7C U8G G9U U10A U11G C12U C13A | 1.11
U7C U8G G9U U10A U11G C12U C13G | 1.14
U7C U8G G9U C12U C13A | 1.31
U7C U8G G9U C12U C13G | 1.33
U7C U8G G9U C12U C13U | 1.2
U7C U8G G9U U10A U11C C12G C13A | 1.16

Variant | aptazyme ON/OFF ratio
U7C U8G G9U U10A U11C C12G C13U | 1.19
U7C U8G G9U U10A U11C C12G C13G | 1.27
U7C U8G G9C U11G C13G | 1.03
U7C U8G G9C U11G C13A | 1.18
U7C U8G G9C U11G C13U | 1.15
U7C U8G G9U U10A U11G C12G C13A | 1.05
U7C U8G G9U U10A U11G C12G C13U | 1.19
U7C U8G G9U U10A U11G C12G C13G | 1.18
U7C U8G G9C U11G | 1.2
U7C U8G G9C U11C | 1.18
U7C U8G G9C U11A | 1.86
U7C U8G G9U C12A C13G | 1.27
U7C U8G G9U C12A C13U | 1.37
U7C U8G G9U C12A C13A | 1.42
U7C U8G G9C U11G C12G | 1.19
U7C U8G G9C U11G C12U | 1.23
U7C U8G G9C U11G C12A | 1.12
U7C U8G G9U U10A U11G C12A C13U | 1.06
U7C U8G G9U U10A U11G C12A C13A | 1.11
U7C U8G G9U U10A U11G C12A C13G | 1.14
U7C U8G G9U U10A C12G C13U | 1.21
U7C U8G G9U U10A C12G C13G | 1.18
U7C U8G G9U U10A C12G C13A | 1.13
U7C U8G G9C U11A C12G C13U | 1.11

Variant | aptazyme ON/OFF ratio
U7C U8G G9C U11A C12G C13A | 1.1
U7C U8G G9C U11A C12G C13G | 1.13
U7C U8G G9U C12G C13U | 1.28
U7C U8G G9U C12G C13G | 1.25
U7C U8G G9U C12G C13A | 1.17
U7C U8G G9U U10C U11A C12G C13U | 1.2
U7C U8G G9U U10C U11A C12G C13G | 1.21
U7C U8G G9U U10C U11A C12G C13A | 1.14
U7C U8G G9U U10C C12U | 1.4
U7C U8G G9U U10C C12A | 1.68
U7C U8G G9U U10C C12G | 1.29
U7C U8G G9U U10C C12A C13A | 1.41
U7C U8G G9U U10C C12A C13U | 1.37
U7C U8G G9U U10C C12A C13G | 1.19
U7C U8G G9U U10A U11A C12G C13G | 1.28
U7C U8G G9U U10A U11A C12G C13U | 1.2
U7C U8G G9U U10A U11A C12G C13A | 1.18
U7C U8G G9C U11A C12U C13U | 1.16
U7C U8G G9C U11A C12U C13G | 1.09
U7C U8G G9C U11A C12U C13A | 1.19
U7C U8G G9U U10C U11A C12A C13G | 1.15
U7C U8G G9U U10C U11A C12A C13U | 1.24
U7C U8G G9U U10C U11A C12A C13A | 1.26

Reference: the RNAGym collection of RNA variant scans (doi:10.1021/acssynbio.7b00057)
